Data reported in the Human Domainome abundance scans (Beltran et al. 2025).
± gives the uncertainty stated by the source.

B1: Lysine-specific demethylase 5C, residues 319 to 373; numbered along this chain, P41229 (parent)
chain: AQFIESYVCRMCSRGDEDDKLLLCDGCDDNYHIFCLLPPLPEIPKGVWRCPKCVM

Variants of: B1
Assay: abundance fitness (aPCA) (normalised: wild type 0, dead -1); higher = more abundant; growth selection in yeast, the domain comes from the species named
Details: Homo sapiens

Compared with D19I, D19A is higher in abundance fitness: -0.198 ± 0.16 for the first, 0.063 ± 0.1 for the second.

D19S and D19P are within error of each other in abundance fitness: -0.089 ± 0.072 for the first, -0.15 ± 0.098 for the second.

Compared with D19V, D19T is higher in abundance fitness: -0.102 ± 0.086 for the first, 0.242 ± 0.097 for the second.

D19Q and D19W are within error of each other in abundance fitness: -0.014 ± 0.13 for the first, -0.146 ± 0.098 for the second.

D19R and S13Y are within error of each other in abundance fitness: -0.03 ± 0.081 for the first, -0.149 ± 0.15 for the second.

S13H and S13W are within error of each other in abundance fitness: -0.239 ± 0.2 for the first, -0.237 ± 0.17 for the second.

S13C and P51T are within error of each other in abundance fitness: -0.171 ± 0.14 for the first, -0.467 ± 0.17 for the second.

P51D and P51V are within error of each other in abundance fitness: 0.009 ± 0.19 for the first, -0.153 ± 0.13 for the second.

P51I and P51F are within error of each other in abundance fitness: -0.175 ± 0.19 for the first, -0.048 ± 0.2 for the second.

C50I and C50Q are within error of each other in abundance fitness: -0.757 ± 0.35 for the first, -0.71 ± 0.22 for the second.

Compared with C50K, C50F is higher in abundance fitness: -1 ± 0.27 for the first, -0.421 ± 0.23 for the second.

C50T and P41M are within error of each other in abundance fitness: -1.05 ± 0.39 for the first, -0.55 ± 0.24 for the second.

P41R and P41L are within error of each other in abundance fitness: 0.126 ± 0.083 for the first, 0.135 ± 0.1 for the second.

P41C and P41H are within error of each other in abundance fitness: -0.185 ± 0.13 for the first, -0.286 ± 0.23 for the second.

P41V and P41G are within error of each other in abundance fitness: -0.051 ± 0.13 for the first, -0.078 ± 0.097 for the second.

P41N and P41F are within error of each other in abundance fitness: -0.157 ± 0.23 for the first, -0.261 ± 0.15 for the second.

P41K and P41Y are within error of each other in abundance fitness: -0.092 ± 0.23 for the first, -0.244 ± 0.22 for the second.

L23Q and L23E are within error of each other in abundance fitness: -0.073 ± 0.14 for the first, -0.078 ± 0.13 for the second.

L23C and L23D are within error of each other in abundance fitness: -0.122 ± 0.14 for the first, 0.084 ± 0.16 for the second.

First: L23K
Second: L23W
The abundance fitness of the first is higher: 0.169 ± 0.1 for the first, -0.224 ± 0.12 for the second.

L23I and L23G are within error of each other in abundance fitness: -0.156 ± 0.14 for the first, -0.086 ± 0.093 for the second.

First: L23T
Second: V54R
The abundance fitness of the first is higher: 0.094 ± 0.082 for the first, -0.131 ± 0.13 for the second.

V54S and V54M are within error of each other in abundance fitness: -0.261 ± 0.14 for the first, -0.145 ± 0.19 for the second.

V54H and V54Y are within error of each other in abundance fitness: 0.002 ± 0.29 for the first, -0.064 ± 0.26 for the second.

First: V54W
Second: V54K
The abundance fitness of the first is lower: -0.836 ± 0.36 for the first, -0.024 ± 0.21 for the second.

F34Y and F34E are within error of each other in abundance fitness: 0.191 ± 0.16 for the first, 0.021 ± 0.13 for the second.

F34H and F34Q are within error of each other in abundance fitness: -0.135 ± 0.18 for the first, -0.053 ± 0.21 for the second.

F34R and F34S are within error of each other in abundance fitness: 0.067 ± 0.11 for the first, -0.029 ± 0.11 for the second.

First: F34K
Second: L21H
The abundance fitness of the first is higher: 0.28 ± 0.13 for the first, -0.458 ± 0.11 for the second.

Going from L21S to L21Y, the abundance fitness rises from -0.605 ± 0.09 to -0.338 ± 0.11.

Going from L21R to L21D, the abundance fitness falls from -0.221 ± 0.11 to -0.87 ± 0.26.

L21N and L37G are within error of each other in abundance fitness: -0.366 ± 0.12 for the first, -0.134 ± 0.14 for the second.

L37H and L37F are within error of each other in abundance fitness: -0.023 ± 0.22 for the first, -0.193 ± 0.17 for the second.

L37P and M55L are within error of each other in abundance fitness: -0.076 ± 0.16 for the first, -0.154 ± 0.18 for the second.

M55S and M55I are within error of each other in abundance fitness: 0.295 ± 0.24 for the first, -0.346 ± 0.44 for the second.

D25M and D25P are within error of each other in abundance fitness: -0.419 ± 0.14 for the first, -0.355 ± 0.1 for the second.

D25S and D25R are within error of each other in abundance fitness: -0.062 ± 0.079 for the first, -0.058 ± 0.091 for the second.

Compared with D25G, D25A is higher in abundance fitness: -0.081 ± 0.12 for the first, 0.158 ± 0.091 for the second.

D25E and D25I are within error of each other in abundance fitness: -0.246 ± 0.16 for the first, -0.224 ± 0.1 for the second.

D25T and D25V are within error of each other in abundance fitness: -0.016 ± 0.1 for the first, -0.009 ± 0.094 for the second.

I43D and I43P are within error of each other in abundance fitness: -0.462 ± 0.36 for the first, -0.307 ± 0.17 for the second.

I43G and I43C are within error of each other in abundance fitness: -0.302 ± 0.12 for the first, -0.314 ± 0.15 for the second.

I43N and I43Q are within error of each other in abundance fitness: -0.222 ± 0.25 for the first, 0.076 ± 0.14 for the second.

G46Q and G46E are within error of each other in abundance fitness: -0.093 ± 0.29 for the first, 0.364 ± 0.26 for the second.

G46I and G46K are within error of each other in abundance fitness: -0.538 ± 0.21 for the first, -0.383 ± 0.21 for the second.

N30M and N30W are within error of each other in abundance fitness: -0.206 ± 0.13 for the first, -0.117 ± 0.11 for the second.

N30F and N30Q are within error of each other in abundance fitness: -0.077 ± 0.18 for the first, 0.157 ± 0.11 for the second.

N30K and N30E are within error of each other in abundance fitness: 0.098 ± 0.1 for the first, -0.052 ± 0.12 for the second.

Going from N30D to N30Y, the abundance fitness rises from -0.774 ± 0.23 to -0.143 ± 0.15.

I4P and I4W are within error of each other in abundance fitness: -0.118 ± 0.15 for the first, -0.287 ± 0.18 for the second.

I4L and I4D are within error of each other in abundance fitness: -0.338 ± 0.11 for the first, -0.058 ± 0.18 for the second.

I4F and P39N are within error of each other in abundance fitness: -0.098 ± 0.16 for the first, -0.045 ± 0.17 for the second.

First: P39S
Second: P39C
The abundance fitness of the first is higher: 0.078 ± 0.1 for the first, -0.264 ± 0.15 for the second.

P39T and P39W are within error of each other in abundance fitness: -0.599 ± 0.17 for the first, -0.752 ± 0.27 for the second.

P39A and K45D are within error of each other in abundance fitness: -0.018 ± 0.11 for the first, 0.237 ± 0.2 for the second.

K45P and K45T are within error of each other in abundance fitness: -0.032 ± 0.14 for the first, -0.003 ± 0.17 for the second.

K45A and K45R are within error of each other in abundance fitness: -0.176 ± 0.15 for the first, -0.067 ± 0.12 for the second.

K45S and K45W are within error of each other in abundance fitness: -0.266 ± 0.12 for the first, -0.446 ± 0.2 for the second.

Compared with K45N, C12T is lower in abundance fitness: -0.022 ± 0.15 for the first, -0.683 ± 0.26 for the second.

C12P and C12A are within error of each other in abundance fitness: -0.52 ± 0.17 for the first, -0.99 ± 0.38 for the second.

C12M and C12E are within error of each other in abundance fitness: -0.669 ± 0.37 for the first, -0.797 ± 0.33 for the second.

C12S and C35N are within error of each other in abundance fitness: -0.855 ± 0.13 for the first, -0.842 ± 0.43 for the second.

C35W and C35Y are within error of each other in abundance fitness: -0.804 ± 0.27 for the first, -0.786 ± 0.39 for the second.

First: C35R
Second: C35V
The abundance fitness of the first is higher: -0.41 ± 0.12 for the first, -1.17 ± 0.22 for the second.

C35P and C35E are within error of each other in abundance fitness: -0.638 ± 0.29 for the first, -0.794 ± 0.26 for the second.

C35H and C27D are within error of each other in abundance fitness: -0.235 ± 0.24 for the first, -0.646 ± 0.29 for the second.

C27T and C27I are within error of each other in abundance fitness: -0.694 ± 0.18 for the first, -0.923 ± 0.41 for the second.

C27S and C27Q are within error of each other in abundance fitness: -0.823 ± 0.14 for the first, -0.522 ± 0.2 for the second.

C27A and C27H are within error of each other in abundance fitness: -0.921 ± 0.33 for the first, -0.905 ± 0.29 for the second.

K52H and K52Y are within error of each other in abundance fitness: -0.184 ± 0.2 for the first, -0.286 ± 0.24 for the second.

K52S and K52I are within error of each other in abundance fitness: -0.183 ± 0.12 for the first, 0.006 ± 0.21 for the second.

L36I and L36F are within error of each other in abundance fitness: -0.134 ± 0.18 for the first, -0.26 ± 0.17 for the second.

First: L36T
Second: L36N
The abundance fitness of the first is higher: -0.16 ± 0.15 for the first, -0.576 ± 0.25 for the second.

First: S6C
Second: S6M
The abundance fitness of the first is lower: -0.361 ± 0.19 for the first, 0.217 ± 0.13 for the second.

First: S6I
Second: S6N
The abundance fitness of the first is lower: -0.445 ± 0.2 for the first, 0.183 ± 0.19 for the second.

S6D and S6Q are within error of each other in abundance fitness: -0.523 ± 0.37 for the first, -0.409 ± 0.22 for the second.

S6A and S6Y are within error of each other in abundance fitness: -0.068 ± 0.19 for the first, -0.1 ± 0.24 for the second.

W48C and W48K are within error of each other in abundance fitness: -1.15 ± 0.44 for the first, -0.635 ± 0.18 for the second.

W48Y and W48M are within error of each other in abundance fitness: -0.568 ± 0.34 for the first, -0.671 ± 0.17 for the second.

W48T and W48G are within error of each other in abundance fitness: -1.05 ± 0.25 for the first, -0.676 ± 0.14 for the second.

V47T and V47N are within error of each other in abundance fitness: -0.101 ± 0.15 for the first, -0.052 ± 0.19 for the second.

V47I and V47P are within error of each other in abundance fitness: -0.132 ± 0.18 for the first, -0.247 ± 0.24 for the second.

First: V47L
Second: V47S
The abundance fitness of the first is lower: -0.359 ± 0.16 for the first, 0.081 ± 0.12 for the second.

With V47D the abundance fitness was -0.064 ± 0.16.
